In patent US20250313612A1 (Adimab, published 2025):
Numbering of substitutions follows the chain as printed.

B1: ADI-14536 (antibody, V domains shown)
VH: QVQLVQSGGGVVQPGRSLRLSCAASGFSFSSYGMHWVRQAPGKGLEWVAAIFYHEIKDYYADSVNGRFSISRDNSKNTLYLEMYSLKVEDTAVYYCARDSGTLTGLPHDAFDIWGQGTTVTVSS
VL: DIQMTQSPSTLSASLGGRVTITCRASQSVTNRLAWYQHKPGKAPNLLIYKASTLEIGVPSRFSGSGSGTEFTLTISSLQPDDFATYYCQQYSSYSWTFGQGTKVEIK
notes: IgG; also called Antibody Number 96
B2: ADI-14531 (antibody, V domains shown)
VH: QVQLVQSGAEVKKPGSSVKVSCKASGVILTSVAVSWVRQAPGKGFEWMGGILPGFNKVRHAQDFENRATHTADASTNTVYMELSGLKSEDTAVYYCAIIDPQDCTRASCFWVNWLAPWGQGTLVTVSS
VL: ETTLTQSPGTLTLSPGERATLSCRASQSVPSRNLAWYQQKPGQAPRLIIYAASNRATDIPDRFSGSGSGTDFTLTISRLEPQDFAVYYCQQYETSPITFGQGTKVDIK
notes: IgG; also called Antibody Number 91
B3: ADI-14549 (antibody, V domains shown)
VH: EVQLVESGPALVKPTQTLTLTCTFSGFSLSSRRMCVSWIRQPPGKALEWLARIDWDDDKSYSTSLKTRLTIAKDTSKNQVVLTMTNMGPADTATYYCARTPIYDSSGYYLYYFDSWGQGTLVTVSS
VL: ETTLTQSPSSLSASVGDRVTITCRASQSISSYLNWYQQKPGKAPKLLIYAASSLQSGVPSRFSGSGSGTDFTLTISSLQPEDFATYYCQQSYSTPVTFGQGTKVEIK
notes: IgG
B4: ADI-14552 (antibody, V domains shown)
VH: EVQLLESGPELKKPGSSVKVSCKASADTFNGHSIAWVRQAPGQGLEWVGGFIPIFGKAYYAQNFQGTVTISADSSTRTVYMDLFNLRSEDTAVYYCARSRKNVIGDTSAWEHMYFYMDVWGTGTTVTVSS
VL: EIVLTQSPGTLSLSPGERVTLSCRASESINKNTYLAWYQQKPGQAPRLLIYGASSRATGIPDRFSGSGSGTDFTLTISRLEPEDSAVYYCQQYGRSMTFGGGTKVEIK
notes: IgG
B5: ADI-14534 (antibody, V domains shown)
VH: EVQLVESGGGVVQPGRSLRLSCAVSGFTFSNFGMHWVRQAPGKGLEWVAAISYDGRKRFQADSVKGRFTISRDNLKNTLNLQMNSLKTEDTAVYYCAKSSRLLDWLYNMDFWGQGTTVTVSS
VL: SYVLTQPPSVSVAPGKTARITCGGNILGSSSVHWFQQKAGQAPVLVIYYDSDRPSGIPERFSGSHSGDTATLTISRVEVGDEADYYCQVWDNSNSQGVFGGGTQLTVL
notes: IgG; also called Antibody Number 94
B6: ADI-14538 (antibody, V domains shown)
VH: B5 VH with R58T, T69I, L102F
VL: B5 VL with V3E, V12E, R19T, N25I, S29T, A39S, N94H
notes: IgG; also called Antibody Number 98
B7: ADI-14547 (antibody, V domains shown)
VH: EVQLLESGPVLVKPTETLTLTCTVSGFSLANPDVAVAWIRQPPGKALEWLAHIFSGDETSYTTSLQNRLTISKDTSKSQVVLIMTKMDPRDTGTYFCARVLTTWHGPDYWGQGTTVTVSS
VL: ETTLTQSPLSLPVTLGQPASISCRSDQSLVYHNGNTYVSWFHQRPGQSPRRLIYKVSIRDSGVPDRFSGSGSGTDFALKISRVEAEDLGVYYCMQGSHWPHTFGQGTKVDIK
notes: IgG; also called Antibody Number 107
B8: ADI-14546 (antibody, V domains shown)
VH: QVQLVQSGAEVKKPGSSVKVSCTASGGSFSTNSIAWLRQTPREGLEWMGGIIPVFGAAKYAQKFQGRVTISADASTTTAYLELHNLRSEDTAVYYCARGISPRTNSDWNHNYFYYYMDVWGKGTTVTVSS
VL: ETTLTQSPGTLSLSPGERATLSCRASQSIFTIYLAWYQQKPGQAPRLLIYSASNRATGIPDRFSGSGSGTDFTLTISSLEPEDFAVYYCHHYGTSPHTFGQGTRLEIK
notes: IgG
B9: ADI-14532 (antibody, V domains shown)
VH: EVQLVESGGGLVKPGGSLRLSCAASGFIFRNAWMSWVRQAPGKGLEWVGRIKRTSEGGSVDYATPVQGRFSISRDDSRKTLYLQMNSLETDDTAVYYCSTGPPYSYFDSSGYSVVDYWGLGTLVTVSS
VL: SYELTQPPSASGTPGQRVTISCSASSSNIGDNYFYWYQQLPGKAPTLLMYGSDQRSSGVPDRFSGSQSGTSASLAISGLRSEDEADYYCAAWDDSLSGPVFGGGTQLTVL
notes: IgG; also called Antibody Number 92
B10: ADI-14537 (antibody, V domains shown)
VH: B9 VH
VL: B9 VL with S1Q, Y2P, E3V, Q106K
notes: IgG; also called Antibody Number 97
B11: ADI-14535 (antibody, V domains shown)
VH: QVQLQQWGPGLVKPSQTLSLTCSVSGASVKIGSNFWTWIRQRPGKGLEWIGAIHDTGTTYYNPSLEPQVIISTDTSQNQFSLRLTSVTAADTAVYYCARGRGYTYGWRYFDYWGQGTLVTVSS
VL: SYVLTQPPSVSVSPGQTARITCSGDALPKQYAFWYQHKAGQAPVLVIKKDTERPSGIPERFSGSISGTTATLIISGVQAEDEADYYCQSSDSSGNVVLFGGGTQLTVL
notes: IgG; also called Antibody Number 95
B12: ADI-14530 (antibody, V domains shown)
VH: QVQLVQSGAEVKKPGSSVKVSCKVVGGSFSNYGIGWVRQAPGQGPEWMGGIIPAFKTAKYAKKFQDRVTITADESSSTAYMEVRGLRPDDTALYYCARPEGDFGDLKWVRSPFDYWGQGTLVTVSS
VL: ETTLTQSPATLSVSPGERVTLSCRASQDVSINLAWYQQKPGQAPRLLIYGASTRATDVPARFSGSGSGTDFTLTISSLQSEDFAFYYCQEYNDWPPQLTFGPGTKVEIK
notes: IgG; also called Antibody Number 90
B13: ADI-14539 (antibody, V domains shown)
VH: QVQLVESGGGVVQPGRSLRLSCAASGFAFRVYDIHWVRQAPGKGLEWVAVAWSDGRDEFYADSVKGRITISRDNSKNTVYLQMSSLRVADTAVYYCARDSGTLTGLPHDAFDVWGQGTTVTVSS
VL: DIQLTQSPSTLSASVGDRVTITCRASQSITTRLAWYQQKLGKAPKLLVYKASTLEIGVPSRFSGRGSGTEFTLTISSLQPDDFATYYCHHYNSYSWTFGQGTKVDIK
notes: IgG; also called Antibody Number 99
B14: ADI-14553 (antibody, V domains shown)
VH: QVQLVQSGTEVKKPGSSVNVSCKAVGGKFTSYNINWVRQAPGQGLEWMGRIIPTLGITYFAQKFQGRLTINADRSTSTAYMDLSSLRSDDTAVYYCARSNPVARDFWSGYSDDSSYAMDVWGQGTTVTVSS
VL: ETTLTQSPGTLSLSPGDRVSLSCRASQTVDKNYVAWYQQKPGQAPRLLIYGASKRAADIPDRFSGSGSGADFTLTISRLEPEDFAVYHCQQYGASAFSFGGGTKLEIK
notes: IgG

What follows are binders tested against RSV F protein of subtype B (18537) on recombinant mKate-RSV (Respiratory syncytial virus subtype B …, UniProt P13843 26-574) (assay: cell-based or functional assay).

Binder | Neut IC50 (µg/ml) subtype B
B1 | 0.696 µg/mL
B2 | > 10 µg/mL
B3 | > 10 µg/mL
B4 | > 10 µg/mL
B5 | > 10 µg/mL
B6 | > 10 µg/mL
B7 | 0.252 µg/mL
B8 | > 10 µg/mL
B9 | 0.208 µg/mL
B10 | 0.292 µg/mL
B11 | > 10 µg/mL
B12 | > 10 µg/mL
B13 | 0.302 µg/mL
B14 | > 10 µg/mL

What follows are binders tested against RSV F protein of subtype A (strain A2) on recombinant mKate-RSV (Respiratory syncytial virus subtype A …, UniProt P03420 26-574) (assay: cell-based or functional assay).

Binder | Neut IC50 (µg/ml) subtype A
B1 | 0.56 µg/mL
B2 | > 10 µg/mL
B3 | > 10 µg/mL
B4 | > 10 µg/mL
B5 | > 10 µg/mL
B6 | > 10 µg/mL
B7 | 0.198 µg/mL
B8 | > 10 µg/mL
B9 | 0.168 µg/mL
B10 | 0.272 µg/mL
B11 | > 10 µg/mL
B12 | > 10 µg/mL
B13 | 0.727 µg/mL
B14 | > 10 µg/mL

These binders were tested against T1, RSV F ectodomain stabilized in the postfusion conformation (F ΔFP), subtype B (Respiratory syncytial virus subtype B, UniProt P13843 26-109; P13843 147-524) (assay: BLI, IgG on AHQ sensors, 100 nM antigen).
T1 construct: extracellular domain; trimer; also called Postfusion subtype B

Binder | Kd
B1 | 0.382 nM
B2 | 23.8 nM
B3 | 2.49 nM
B4 | 1.11 nM
B5 | 0.93 nM
B6 | 0.154 nM
B7 | 0.269 nM
B8 | 0.472 nM
B9 | 0.136 nM
B10 | 0.142 nM
B11 | 0.238 nM
B12 | 37.6 nM
B13 | 5.71 nM
B14 | 117 nM

The binders below were run against T2, RSV F ectodomain stabilized in the postfusion conformation (F ΔFP), subtype A (Respiratory syncytial virus subtype A, UniProt P03420 26-109; P03420 147-524) (assay: BLI, IgG on AHQ sensors, 100 nM antigen).
T2 construct: extracellular domain; trimer; also called Postfusion subtype A; Postfusion RSV F

Binder | Kd
B1 | 0.404 nM
B2 | 12.6 nM
B3 | 0.326 nM
B4 | 1.27 nM
B5 | 1 nM
B6 | 0.35 nM
B7 | 0.169 nM
B8 | 0.589 nM
B9 | 0.224 nM
B10 | 0.211 nM
B11 | 0.23 nM
B12 | 47.2 nM
B13 | 0.738 nM
B14 | 67.1 nM
